Laboratory results from US20160136299A1 (Sanofi, published 2016).

B1: Anti-αβTCR clone H66 S298N/Y300S antibody (antibody, human IgG1, kappa)
heavy: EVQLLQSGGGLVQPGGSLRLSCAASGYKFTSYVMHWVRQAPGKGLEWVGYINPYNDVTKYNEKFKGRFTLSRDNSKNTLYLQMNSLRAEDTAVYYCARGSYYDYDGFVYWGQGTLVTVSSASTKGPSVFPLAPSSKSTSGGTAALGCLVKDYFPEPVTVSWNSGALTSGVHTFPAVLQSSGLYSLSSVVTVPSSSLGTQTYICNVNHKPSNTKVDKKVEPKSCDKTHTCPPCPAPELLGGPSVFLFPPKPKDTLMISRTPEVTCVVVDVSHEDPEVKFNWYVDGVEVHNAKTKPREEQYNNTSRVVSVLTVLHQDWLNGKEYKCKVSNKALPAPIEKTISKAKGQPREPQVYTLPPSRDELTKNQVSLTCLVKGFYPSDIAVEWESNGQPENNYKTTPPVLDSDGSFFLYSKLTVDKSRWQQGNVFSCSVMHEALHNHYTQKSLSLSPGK
light: EIVLTQSPATLSLSPGERATLSCSATSSVSYMHWYQQKPGQAPRRLIYDTSKLASGVPARFSGSGSGTSYTLTISSLEPEDFAVYYCQQWSSNPLTFGGGTKVEIKRTVAAPSVFIFPPSDEQLKSGTASVVCLLNNFYPREAKVQWKVDNALQSGNSQESVTEQDSKDSTYSLSSTLTLSKADYEKHKVYACEVTHQGLSSPVTKSFNRGEC
notes: Full-length human IgG1; also called SY; S298N/Y300S H66
B2: Anti-αβTCR clone H66 N297Q/S298N/Y300S antibody (antibody, human IgG1, kappa)
heavy: EVQLLQSGGGLVQPGGSLRLSCAASGYKFTSYVMHWVRQAPGKGLEWVGYINPYNDVTKYNEKFKGRFTLSRDNSKNTLYLQMNSLRAEDTAVYYCARGSYYDYDGFVYWGQGTLVTVSSASTKGPSVFPLAPSSKSTSGGTAALGCLVKDYFPEPVTVSWNSGALTSGVHTFPAVLQSSGLYSLSSVVTVPSSSLGTQTYICNVNHKPSNTKVDKKVEPKSCDKTHTCPPCPAPELLGGPSVFLFPPKPKDTLMISRTPEVTCVVVDVSHEDPEVKFNWYVDGVEVHNAKTKPREEQYQNTSRVVSVLTVLHQDWLNGKEYKCKVSNKALPAPIEKTISKAKGQPREPQVYTLPPSRDELTKNQVSLTCLVKGFYPSDIAVEWESNGQPENNYKTTPPVLDSDGSFFLYSKLTVDKSRWQQGNVFSCSVMHEALHNHYTQKSLSLSPGK
light: B1 light
notes: Full-length human IgG1; also called NSY

Target: T1, Recombinant human FcγRI (human, UniProt P12314 16-292, limits assumed)
T1 construct: not shown: His tag (captured on anti-tetra-His antibody)
Assay: Biacore SPR; FcγRI captured on anti-tetra-His, antibody 100 nM

T1 sequence (P12314 16-292 limits assumed): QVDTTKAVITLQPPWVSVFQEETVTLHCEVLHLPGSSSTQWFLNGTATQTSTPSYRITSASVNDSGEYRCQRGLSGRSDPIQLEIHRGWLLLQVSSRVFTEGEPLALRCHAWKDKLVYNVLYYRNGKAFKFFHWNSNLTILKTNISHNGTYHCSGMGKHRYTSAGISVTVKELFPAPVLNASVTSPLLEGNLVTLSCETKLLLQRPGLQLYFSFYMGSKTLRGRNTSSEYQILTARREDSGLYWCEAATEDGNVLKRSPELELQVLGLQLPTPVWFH

| Binder | binding result |
| --- | --- |
| B1 | binds |
| B2 | binds |
